# Results from patent publication US7919091B2, “Lipolysis stimulated receptor (LSR) specific antibodies” (Serono Genetics Institute S.A., priority 1997, dated 2011).
# B1: leptin: mouse recombinant leptin with hexahistidine end, expressed in E. coli (protein, UniProt P41160 22-167, looked up)
# Leptin: VPIQKVQDDTKTLIKTIVTRINDISHTQSVSAKQRVTGLDFIPGLHPILSLSKMDQTLAVYQQVLTSLPSQNVLQIANDLENLRDLLHLLAFSKSCSLPQTSGLQKPESLDGVLEASLYSTEVVALSRLQGSLQDILQQLDVSPEC
# modifications: hexahistidine tag
# notes: mouse recombinant leptin with hexahistidine end, expressed in E. coli
# What was measured:
# LSR = target: T1, LSR (Rattus norvegicus, UniProt Q9WU74); assay: LSR activity of binding, internalization and degradation of lipoproteins in the presence of leptin, rat hepatocytes; format: cell-based; settings: increasing concentrations of leptin, difference with/without 500 μM oleate
# T1 construct: from tissue; host or cells: rat liver plasma membranes / solubilized rat liver membrane proteins
# T1 sequence (Q9WU74 36-593): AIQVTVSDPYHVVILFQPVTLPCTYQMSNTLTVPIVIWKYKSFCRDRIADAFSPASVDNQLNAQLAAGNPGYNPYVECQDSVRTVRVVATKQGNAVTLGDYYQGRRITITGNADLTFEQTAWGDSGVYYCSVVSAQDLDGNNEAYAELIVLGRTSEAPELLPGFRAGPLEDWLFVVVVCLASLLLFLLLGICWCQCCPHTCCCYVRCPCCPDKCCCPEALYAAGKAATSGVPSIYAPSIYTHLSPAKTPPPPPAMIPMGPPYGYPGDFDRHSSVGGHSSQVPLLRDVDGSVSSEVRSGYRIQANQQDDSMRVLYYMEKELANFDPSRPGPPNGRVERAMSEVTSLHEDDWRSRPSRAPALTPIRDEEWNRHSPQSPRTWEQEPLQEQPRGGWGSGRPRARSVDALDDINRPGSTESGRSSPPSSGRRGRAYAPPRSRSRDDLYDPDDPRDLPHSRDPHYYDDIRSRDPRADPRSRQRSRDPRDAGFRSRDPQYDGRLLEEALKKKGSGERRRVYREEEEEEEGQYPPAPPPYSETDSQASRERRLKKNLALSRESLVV
# T1 sequence (Q9WU74 36-525 isoform Q9WU74-3 limits assumed): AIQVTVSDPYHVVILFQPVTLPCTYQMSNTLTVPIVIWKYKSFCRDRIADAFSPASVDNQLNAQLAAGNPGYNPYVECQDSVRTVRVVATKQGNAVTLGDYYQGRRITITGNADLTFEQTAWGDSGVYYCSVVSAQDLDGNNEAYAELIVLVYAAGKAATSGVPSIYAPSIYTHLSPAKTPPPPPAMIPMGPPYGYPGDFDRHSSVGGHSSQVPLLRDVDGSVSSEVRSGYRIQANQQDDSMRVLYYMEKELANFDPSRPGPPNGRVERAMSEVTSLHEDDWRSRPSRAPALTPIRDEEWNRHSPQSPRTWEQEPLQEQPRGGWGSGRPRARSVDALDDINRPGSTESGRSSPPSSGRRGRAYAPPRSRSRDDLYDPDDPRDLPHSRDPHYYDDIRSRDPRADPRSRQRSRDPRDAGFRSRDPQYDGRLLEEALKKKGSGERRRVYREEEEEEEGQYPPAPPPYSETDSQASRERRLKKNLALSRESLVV
# Experimental: Rat hepatocytes in primary culture are incubated at 37° C. for 30 min with an increasing concentration of leptin, and then incubated at 37° C. for 4 hours with either 50 μg/ml of ^125I-LDL (specific activity: 209 cpm/ng) or 50 μg/ml of ^125I-VLDL (specific activity: 157 cpm/ng) in the absence or in the presence of 500 μM oleate. The cells are then washed and the quantities of ^125I-lipoproteins bound, incorporated and degraded are measured as described above in Example 1 (Bihain and Yen, 1992). The results shown in FIG. 23 represent the differences obtained between the cells incubated with or without oleate. Each point represents the mean of 3 measurements. The standard deviation for each point is included in the symbol.
# [1] = Postprandial lipemic response in mice after a high-fat meal; format: in vivo; settings: 50 μg leptin i.v. with test meal; ob/ob, db/db and control mice
# Experimental: Control, ob/ob and db/db mice, starved since the day before, are force-fed with a meal which is very high in fat [60% fat (37% saturated, 27% monounsaturated and 36% polyunsaturated fatty acids), 20% protein and 20% carbohydrate] providing 56 kcal of energy/kg of the weight of the animal. Immediately after the meal (time=0 hour), the mice are injected intravenously with 200 μl of physiological saline solution. At various times, 20 μl of blood are collected via the caudal vein in tubes containing 90 μg of disodium EDTA, and after separating the plasma by centrifugation, the plasma concentration of triglyceridemia is determined with the aid of an enzymatic assay kit. Each point on the curves presented corresponds to the mean with standard deviation obtained for 3 measurements per animal and for 3 different animals.
# The procedure is the same as above, except that immediately after the meal (time=0 hour), the mice are injected intravenously with either 200 μl of physiological saline solution, or 200 μl of the same solution containing 50 μg of murine recombinant leptin.
# ob/ob mice, starved since the day before, are force-fed with a meal identical to that described above. […] Blood is collected between 2 and 3 hours after the meal and the plasma concentration of triglycerides (TG) is measured. […]
# LSR receptors [2] = system: LSR receptors; parameters: species or system mice; settings: mouse
# Experimental: The apparent number of LSR receptors on plasma membranes is measured as previously described (Mann et al., 1995) by estimating the quantity of LDL bound to a plasma membrane preparation. The plasma membranes (100 μg) are incubated with 1 mM oleate; they are then washed three times as indicated above, and then incubated for 1 hour at 37° C. with 40 μg/ml of ^125I-LDL. The quantity of ^125I-LDL bound to the plasma membranes is then determined by counting. The mean is established on 3 measurements per animal for 3 different animals in each of the groups.
# [3] = Long-term treatment with leptin on ob/ob mice: weight and postprandial lipemic response; format: in vivo
# Experimental: (§1) The ob/ob obese mice received a daily injection of either leptin, or of an equivalent volume of sterile PBS, for 30 days. The injected doses are 50 μg/animal from day 0 to day 4, 100 μg/animal from day 5 to day 17, and 150 μg/animal from day 18 to day 30. Several parameters indicated below are measured: • the weight (FIG. 29 A): the change in weight is measured for 6 animals, over the duration of the treatment; • the postprandial lipemic response (FIG. 29 B): it is measured according to the protocol detailed in Example 5 on three animals in each group, on day 29; • the apparent number of LSR receptors (FIG. 29 C): it is measured according to the protocol detailed in Example 4 on three animals in each group, on day 30; • the quantity of LSR mRNA ([…]): it is estimated by Northern blotting as indicated in the protocol of Example 2.
# LSR receptors [4] = assay: Long-term treatment with leptin on ob/ob mice: LSR receptor number and LSR mRNA; format: in vivo
# Experimental: as §1
molecule,measurement,setting,value
B1,"binding, internalization and degradation of VLDLs and LDLs",LSR,increases
same,postprandial lipemic response (plasma triglycerides),[1],reduce
same,apparent number of LSR receptors expressed at the surface of the hepatocytes in vivo,LSR receptors [2],increase
same,weight,[3]; daily leptin injection over 30 days,very significant loss of weight
same,postprandial lipemic response,[3]; day 29 of leptin treatment,clear reduction
same,apparent number of LSR receptors at the surface of the cells,LSR receptors [4]; day 30 of leptin treatment,increase
same,quantity of mRNA encoding the subunits of the LSR receptor,"LSR receptors [4]; leptin 30 days, Northern blotting of liver RNA",increase
